Results reported in article PMC4546058, “The Energetics of Streptococcal Enolase Octamer Formation: The Quantitative Contributions of the Last Eight Amino Acids at the Carboxy-Terminus” (PLoS ONE, 2015).

Molecular target: the molecule itself
Experiment: AUC; sedimentation velocity, Beckman XL-I, 20°C, 30 000-37 000 RPM, TME-SO4 (50 mM Tris, 1 mM MgSO4, 0.1 mM EDTA, 44 mN H2SO4, pH 7.4); c(s) in Sedfit; octamer to 8 monomers

B1: Str enolase DB (Streptococcus pyogenes enolase, sequence of accession number NP_268959.1) (enzyme, UniProt P69949 1-435, looked up)
chain: MSIITDVYAREVLDSRGNPTLEVEVYTESGAFGRGMVPSGASTGEHEAVELRDGDKSRYLGLGTQKAVDNVNNIIAEAIIGYDVRDQQAIDRAMIALDGTPNKGKLGANAILGVSIAVARAAADYLEVPLYTYLGGFNTKVLPTPMMNIINGGSHSDAPIAFQEFMIMPVGAPTFKEGLRWGAEVFHALKKILKERGLVTAVGDEGGFAPKFEGTEDGVETILKAIEAAGYEAGENGIMIGFDCASSEFYDKERKVYDYTKFEGEGAAVRTSAEQVDYLEELVNKYPIITIEDGMDENDWDGWKVLTERLGKRVQLVGDDFFVTNTEYLARGIKENAANSILIKVNQIGTLTETFEAIEMAKEAGYTAVVSHRSGETEDSTIADIAVATNAGQIKTGSLSRTDRIAKYNQLLRIEDQLGEVAQYKGIKSFYNLKK
notes: PDB 3ZLH is the same protein with E77K; also called Streptococcal enolase; source: stored in saturated ammonium sulfate, dialyzed against TME-SO4
stoichiometry N: 8
